“And” between values parts separate entries of the source, which are not always exact repeats. Identical values can stand only once. Where no end group is shown, it is not given here.

By Kd is commonly meant the concentration at which binding is half-saturated. Read a high Kd as lower affinity.

Experiment [1] concerns the target bovine PACAP receptor protein from bovine cerebrum (bovine) (UniProt Q29627). The experiment in a line: radioligand.
Experiment [2] shares this target. The experiment in a line: saturation binding experiment; fraction: Membrane fraction.
For experiment [3], the target named is T1, bovine PACAP receptor protein Type I-A encoded by pBPR-T, expressed in CHO cells (UniProt Q29627 38-513).
T1 chain: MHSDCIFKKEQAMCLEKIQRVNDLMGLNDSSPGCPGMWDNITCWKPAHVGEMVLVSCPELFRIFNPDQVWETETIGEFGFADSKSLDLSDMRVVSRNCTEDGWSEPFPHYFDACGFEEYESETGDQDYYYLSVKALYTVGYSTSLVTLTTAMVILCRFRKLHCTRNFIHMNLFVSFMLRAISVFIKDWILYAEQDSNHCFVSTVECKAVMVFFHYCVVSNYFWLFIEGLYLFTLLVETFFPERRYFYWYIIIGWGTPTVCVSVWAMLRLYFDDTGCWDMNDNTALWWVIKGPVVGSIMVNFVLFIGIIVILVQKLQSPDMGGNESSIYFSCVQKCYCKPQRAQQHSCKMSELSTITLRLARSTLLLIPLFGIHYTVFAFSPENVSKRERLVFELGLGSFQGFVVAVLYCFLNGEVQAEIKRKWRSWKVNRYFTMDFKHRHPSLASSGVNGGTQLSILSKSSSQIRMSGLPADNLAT
As to the kind of experiment: radioligand.

The target of experiment [4] is bovine PACAP receptor protein from bovine cerebrum (bovine) (UniProt Q29627). As to the kind of experiment: saturation binding experiment; fraction: Micro hydroxyapatite.
For experiment [5] the target is unchanged. The experiment in a line: saturation binding experiment; fraction: Gel filtration (final purified sample). A general note: Size exclusion chromatography separates by hydrodynamic size, large species first.
Experiment [6] has the same target. The experiment in a line: saturation binding experiment; fraction: Avidin-agarose.
For experiment [7] the target is unchanged. The experiment in a line: saturation binding experiment; fraction: Hydroxyapatite.
Experiment [8] has the same target. As to the kind of experiment: saturation binding experiment; fraction: Solubilized product.
Experiment [9] shares this target. As to the kind of experiment: saturation binding experiment; fraction: Ion exchange.
In experiment [10] the target is T2, rat PACAP receptor protein Type I-B (pRPR4-B, derived from pRPACAPR12), expressed in CHO or Sf9 cells (rat, UniProt P32215 20-523).
T2 construct: also called pRPR4-B-introduced CHO cells; clone B17
T2 sequence: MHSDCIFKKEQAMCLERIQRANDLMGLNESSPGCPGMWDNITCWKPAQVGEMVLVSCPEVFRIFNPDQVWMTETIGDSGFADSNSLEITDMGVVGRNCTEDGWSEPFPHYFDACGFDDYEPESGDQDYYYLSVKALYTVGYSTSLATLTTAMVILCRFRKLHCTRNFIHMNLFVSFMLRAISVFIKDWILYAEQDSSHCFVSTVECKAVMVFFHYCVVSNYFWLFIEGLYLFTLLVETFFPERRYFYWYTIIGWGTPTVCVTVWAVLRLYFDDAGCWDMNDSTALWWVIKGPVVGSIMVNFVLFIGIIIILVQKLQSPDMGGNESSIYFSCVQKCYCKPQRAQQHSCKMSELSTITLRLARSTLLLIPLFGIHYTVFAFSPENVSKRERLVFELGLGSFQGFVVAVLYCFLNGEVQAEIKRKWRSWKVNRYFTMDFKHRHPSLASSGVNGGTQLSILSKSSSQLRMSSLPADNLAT
The experiment in a line: 100 pM [125I]-PACAP27 on whole CHO cells, gamma counting (FIG. 39).
Experimental: (§2) The cells were incubated until they covered the bottom surface of the tissue culture plates completely. […] The cells were washed twice with a buffer for the binding experiment [Hank's solution (pH 7.4) containing 5 mM HEPES, 5% CRAPS and 0.1% BSA]. […] After incubation at 37° C. for 1 hour, the cells washed three times with the buffer for the binding experiment were dissolved with 1 ml of 0.5 N NaOH and 0.1% SDS for each well, and the radioactivity contained therein was measured with a γ-counter.

Experiment [11] deals with T3, rat PACAP receptor protein Type I-A (pRPR3-A, derived from pRPACAPR46-5), expressed in CHO or Sf9 cells (rat, UniProt P32215 20-523).
T3 construct: also called pRPR3-A-introduced CHO cells; clone A12
T3 sequence: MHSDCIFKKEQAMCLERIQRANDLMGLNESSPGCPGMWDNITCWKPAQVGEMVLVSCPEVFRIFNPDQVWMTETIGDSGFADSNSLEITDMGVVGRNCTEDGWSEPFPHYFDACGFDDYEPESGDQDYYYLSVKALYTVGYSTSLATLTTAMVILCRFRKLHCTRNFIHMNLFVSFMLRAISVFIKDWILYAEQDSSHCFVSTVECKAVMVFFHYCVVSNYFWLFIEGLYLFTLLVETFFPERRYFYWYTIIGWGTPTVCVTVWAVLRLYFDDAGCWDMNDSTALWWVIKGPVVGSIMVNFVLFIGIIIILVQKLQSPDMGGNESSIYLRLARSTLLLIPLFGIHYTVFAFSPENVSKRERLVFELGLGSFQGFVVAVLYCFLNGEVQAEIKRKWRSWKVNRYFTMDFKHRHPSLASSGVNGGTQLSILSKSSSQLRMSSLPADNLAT
The description is as above.
Experimental: as §2

Experiment [12] has as its target T3, rat PACAP receptor protein Type I-A …. The experiment in a line: competition with 100 pM [125I]-PACAP27, membrane fraction of pRPR3-A-introduced CHO cells (FIG. 40A). Here is the method: (§1) The pRPR3-A-introduced and pRPR4-B-introduced CHO cells obtained in (2) described above were each disrupted in sodium carbonate buffer containing 1 mM EDTA, 0.5 mM PMSF, 20 μg/ml leupeptin, 4 μg/ml E-64 and 1 μg/ml pepstatin with a Polytron homogenizer (Kinematica) to prepare membrane fractions. Using the membrane fractions, complex binding experiments were conducted. […] The reaction was conducted at 25° C. for 1 hour, and bound ligands were separated from free ligands by filtration through a filter. […] The amount of bound ligands was measured with a γ-counter.

The target in experiment [13] is T2, rat PACAP receptor protein Type I-B …. The experiment in a line: competition with 100 pM [125I]-PACAP27, membrane fraction of pRPR4-B-introduced CHO cells (FIG. 40B). Here is the method: as §1

In the case of [^125I]-PACAP27, the dissociation constant (Kd) in [1] is 0.029 nM and 0.03 nM.

B1: [^125I]-PACAP27 (peptide)
peptide: HSDGIFTDSYSRYRKQMAVKKYLAAVL-NH2
modifications: also: 125I label on one Tyr, which one not given here
notes: also called radioactive iodine-labelled PACAP27
As to B1, the Specific activity in experiment [2] worked out at 1.3 pmol/mg; in experiment [5], 16000 pmol/mg; in [7], 25 pmol/mg; in experiment [8] it was 1.9 pmol/mg; in [9] it was 9.9 pmol/mg. Moreover, the Total activity (maximum binding of [125I]PACAP27) in experiment [2] stood at 8120 pmol; in experiment [4], 1720 pmol; in [5], 671 pmol; in experiment [6], 2040 pmol; in experiment [7] it was 3350 pmol; in [8] it was 4560 pmol. The molecule also had a Total activity (maximum binding of [125I]PACAP27) in [9] of 4700 pmol. For the same molecule, binding in experiment [3] was characterised by a dissociation constant (Kd) of 0.103 nM. Also, the binding result in [10] and in [11] was “binds” in each case.

B2: PACAP27 (peptide)
peptide: HSDGIFTDSYSRYRKQMAVKKYLAAVL-NH2
notes: also called unlabeled PACAP27; cold PACAP27
Turning to B2, the binding result in [12] and in experiment [13] was “binds” each time.
